The target of assay [1] is T1, NH2-terminal GD epitope-tagged human EphB2 overexpressed on cells (HT1080-EphB2, SVT2-EphB2) (human, UniProt P29323 19-1055).
T1 sequence (looked up): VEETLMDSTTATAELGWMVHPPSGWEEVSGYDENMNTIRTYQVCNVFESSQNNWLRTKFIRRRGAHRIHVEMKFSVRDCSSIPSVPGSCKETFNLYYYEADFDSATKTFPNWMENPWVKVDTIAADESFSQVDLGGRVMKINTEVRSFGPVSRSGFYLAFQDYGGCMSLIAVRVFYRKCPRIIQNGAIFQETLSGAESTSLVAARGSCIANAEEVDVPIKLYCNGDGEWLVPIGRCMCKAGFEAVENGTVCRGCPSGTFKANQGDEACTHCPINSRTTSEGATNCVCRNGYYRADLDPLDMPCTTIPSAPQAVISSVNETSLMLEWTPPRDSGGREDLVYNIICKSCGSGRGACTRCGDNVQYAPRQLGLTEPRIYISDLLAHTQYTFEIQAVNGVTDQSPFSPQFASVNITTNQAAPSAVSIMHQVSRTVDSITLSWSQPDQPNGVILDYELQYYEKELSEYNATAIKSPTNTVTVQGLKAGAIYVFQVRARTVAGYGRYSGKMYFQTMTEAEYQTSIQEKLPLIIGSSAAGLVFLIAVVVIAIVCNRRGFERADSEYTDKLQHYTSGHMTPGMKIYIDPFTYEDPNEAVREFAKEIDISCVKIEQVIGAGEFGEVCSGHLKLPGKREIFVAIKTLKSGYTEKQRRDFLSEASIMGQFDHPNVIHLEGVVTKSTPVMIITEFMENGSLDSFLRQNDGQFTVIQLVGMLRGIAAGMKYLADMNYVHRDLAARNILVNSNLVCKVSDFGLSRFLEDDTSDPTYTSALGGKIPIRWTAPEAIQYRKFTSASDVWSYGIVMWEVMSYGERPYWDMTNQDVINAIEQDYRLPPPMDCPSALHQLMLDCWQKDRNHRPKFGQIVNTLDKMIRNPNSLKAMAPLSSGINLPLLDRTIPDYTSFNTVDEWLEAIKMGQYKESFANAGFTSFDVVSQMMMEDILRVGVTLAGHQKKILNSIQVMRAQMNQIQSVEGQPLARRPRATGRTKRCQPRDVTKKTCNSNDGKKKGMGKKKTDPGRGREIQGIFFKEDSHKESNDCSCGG
Put plainly: cell-based or functional assay.

Assay [2] deals with T1, NH2-terminal GD epitope-tagged human …. Put plainly: Scatchard analysis, 125I-labeled MAb 2H9 with unlabeled MAb 2H9 on HT1080-EphB2 cells, on ice.
Assay [3] concerns the target T2, polyhis-tagged human EphB2 (baculovirus-derived His8-tagged EphB2 receptor) (human, UniProt P29323 19-543).
T2 construct: extracellular domain; also called polyhis tagged EphB2; purified EphB2 immunogen; not shown: His8 tag
T2 sequence (looked up): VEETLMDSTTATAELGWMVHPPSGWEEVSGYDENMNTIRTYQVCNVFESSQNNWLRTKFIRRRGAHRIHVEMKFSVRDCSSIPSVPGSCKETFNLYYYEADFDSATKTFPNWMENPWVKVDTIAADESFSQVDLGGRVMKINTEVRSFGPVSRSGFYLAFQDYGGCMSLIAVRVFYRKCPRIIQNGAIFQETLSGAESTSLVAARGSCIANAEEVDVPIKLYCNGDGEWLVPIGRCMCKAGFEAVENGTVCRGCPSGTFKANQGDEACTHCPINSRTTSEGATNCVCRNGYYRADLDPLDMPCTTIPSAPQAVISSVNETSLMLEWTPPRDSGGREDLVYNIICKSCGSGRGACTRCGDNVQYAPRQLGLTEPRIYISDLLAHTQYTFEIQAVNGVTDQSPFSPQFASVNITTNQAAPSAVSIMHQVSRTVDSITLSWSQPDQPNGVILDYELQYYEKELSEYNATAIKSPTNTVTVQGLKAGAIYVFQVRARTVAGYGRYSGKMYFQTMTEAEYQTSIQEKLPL
Put plainly: SPR (BIAcore 3000), antibody immobilized on CM5 chip, polyhis-tagged EphB2 injected, 1:1 model. How it is done:
Binding affinity of Mab 2H9 was determined by surface plasmon resonance using Pharmacia BIAcore® 3000 (BIAcore AB, Uppsala, Sweden) at room temperature (see, e.g., Morton et al. (1998) Methods in Enzymology, 295, 268-294). Anti-EphB2 antibodies were immobilized to the sensor chip (CM5) through primary amine groups. The carboxymethylated sensor chip surface matrix was activated by injecting 20 μl of a mixture of 0.025 M N-hydroxysuccinimide and 0.1 M N-ethyl-N′(dimethylaminopropyl) carbodiimide at 5 μl/min. 5-10 μl of 10 μg/ml solution of anti-EphB2 antibodies in 10 mM sodium acetate, pH 4.5, were injected at 5 μl/min. After coupling, unoccupied sites on the chip were blocked by injecting 20 μl of 1M ethanolamine, pH 8.5. The running buffer was PBS containing 0.05% polysorbate 20. For kinetic measurements, two-fold serial dilutions of polyhis-tagged EphB2 in running buffer were injected over the flow cells for 3 minutes at a flow rate of 30 μl/min and the bound polyhis tagged EphB2 was allow to dissociate for 20 minutes. The binding surface was regenerated by injecting 20 μl of 10 mM glycine-HCl (pH 1.5). […] There was no significant non-specific binding of polyhis tagged EphB2 to flow cell one. For calculate apparent binding affinity, data were analyzed using a 1:1 binding model using global fitting. The association and dissociation rate constants were fitted simultaneously (BIAevaluation software).

In assay [4] the target is T3, endogenous human EphB2 on cells or tissue (HT1080-GD vector control cells, colorectal cancer cell lines, … (human, UniProt P29323 19-1055)).
T3 construct: whole, on cells; also called vector control HT1080 cell line
T3 sequence (looked up): T1 sequence (looked up)
Put plainly: saturation binding on HT1080-GD cells, HRP-conjugated secondary antibody, absorbance at 450 nm.

For assay [5], the target named is T3, endogenous human EphB2 on cells or …. Put plainly: Scatchard analysis of 125I-labelled MAb 2H9 competed with unlabelled MAb 2H9 on HT1080-GD cells.
The target in assay [6] is T1, NH2-terminal GD epitope-tagged human …. Put plainly: saturation binding on HT1080-EphB2 cells, HRP-conjugated secondary antibody, absorbance at 450 nm.
The target is the same in assay [7]. Put plainly: Scatchard analysis of 125I-labelled MAb 2H9 competed with unlabelled MAb 2H9 on HT1080-EphB2 cells.
Assay [8] concerns the target T3, endogenous human EphB2 on cells or …. Put plainly: Scatchard analysis, 125I-labeled MAb 2H9 with unlabeled MAb 2H9 on HT1080-GD cells, on ice; HT1080-GD cells, Scatchard analysis.

B1: anti-EphB2 monoclonal antibody produced by hybridoma cell line 2H9.11.14 (ATCC PTA-6606) (antibody, IgG1, V domains shown)
VH: QVQLQQSGAELAKPGASVKMSCKASGYTFTSYWMHWVKQRPGQGLEWIGFINPSTGYTDYNQKFKDKATLTVKSSNTAYMQLSRLTSEDSAVYYCTRRLKLLRYAMDYWGQGTTLTVSA
VL: DIVMTQSPSSLSVSAGEKVTMNCKSSQSLLNSGNQENYLAWYQQKPGQPPKLLIYGASTRESGVPDRFTGSGSGTDFTLTISSVQAEDLAVYYCQNDHSYPFTFGAGTKVEIKR
notes: 125I-labelled in the Scatchard and uptake assays; also called Mab 2H9; MAb 2H9
On to B1, for which, in assay [1], the “internalization of 125I-labeled MAb 2H9 by HT1080-EphB2 cells after shift to 37° C. for 1 hour” value was about 2 fold. In addition, the Kd in assay [2] is about 4 nM; in assay [3], 0.12 nM; in assay [5], 4.4 nM; in assay [7], 4.1 nM; in assay [8], about 4 nM. The molecule also had a koff in assay [3] of 1.03e-05 s⁻¹. The kon in assay [3] is 82800 M⁻¹ s⁻¹. Also, the “EC50 (read off the curve)” value in assay [4] and in assay [6] was about 0.02 µg/mL each time.

B2: immunoconjugate 2H9-MC-vc-PAB-MMAE (antibody, mouse IgG1, V domains shown)
VH: B1 VH
VL: B1 VL
modifications: MC-vc-PAB-MMAE drug-linker covalently coupled to the antibody; sites and chain not stated
notes: also called MMAE-vc-2H9; 2H9-vc-MMAE
On to B2, for which the “antibody concentration required for half-maximal cell killing (IC50), Cell Titer-Glo viability after 48 h” value in assay [1] was 0.006 µg/mL. Besides, the “EC50 (read off the curve)” value in assay [6] is about 0.02 µg/mL.

Values taken from patent US20080254024A1 (Genentech, published 2008).
